{
  "source": "patent US9803013B2",
  "about": "“Biological materials and uses thereof” (BioInvent International AB, priority 2005, dated 2017)",
  "molecules": {"B1": {"name": "B11: fully human IgG1 antibody specific for ICAM-1; VH and VL sequences of FIG. 10 (SEQ ID NOs. 6 and 8) (antibody, listed as Homo sapiens, V domains shown)", "VH": "EVQLLESGGGLVQPGGSLRLSCAASGFTFSNAWMSWVRQAPGKGLEWVAFIWYDGSNKYYADSVKGRFTISRDNSKNTLYLQMNSLRAEDTAVYYCARYSGWYFDYWGQGTLVTVSS", "VL": "QSVLTQPPSASGTPGQRVTISCTGSSSNIGAGYDVHWYQQLPGTAPKLLIYDNNNRPSGVPDRFSGSKSGTSASLAISGLRSEDEADYYCQSYDSSLSAWLFGGGTKLTVLG"}},
  "key": {"B lymphoma tissue": {"test_system": "B lymphoma tissue", "experiment": "Immunohistochemistry on cryopreserved lymph node biopsies", "format": "binding, human", "set-up": "key: Increasing numbers of + indicate stronger staining.; ++: Increasing numbers of + indicate stronger staining.; +++: Increasing numbers of + indicate stronger staining", "protocol": "Cryopreserved lymph node biopsies of patients with Anaplastic Large Cell B lymphoma (one patient), Centroblastic/Centrocytic B non-Hodgkin lymphoma (three patients), and B cell chronic lymphocytic leukaemia (one patient) were obtained from the Department of Pathology at Lund University (Lund, Sweden). Eight-micrometer sections of cryo-preserved tissue were fixed in acetone for 10 min at 4° C. Endogenous biotin-binding activity was blocked by sequential treatment with Avidin and Biotin (Avidin/Biotin blocking kit, Invitrogen) for 20 min each.\nTissues were incubated with 5 μg/ml control scFv or B11 scFv for 1 h. Following washing, sections were incubated with biotin-conjugated mouse anti-His mAb (R&D Systems) for 30 min. scFv binding was detected following treatment with ABC Complex/HRP reagent (Dako Cytomation) for 30 min, and subsequent incubation with DAB for 5 min.\nSections were photographed using a Leica DC 300F digital camera mounted on top of a Leica DMR light/fluorescence microscope."}, "[1]": {"test_system": "HPAC pancreatic carcinoma", "experiment": "IgG binding to tumour cell line, flow cytometry", "set-up": "species or system human", "details": "compared to the prostate cancer cells", "excerpt": "(§1) FIG. 6—Binding of B1, B11, C11 IgG, to tumour cell lines of different origin. The antigen distribution of antigens targeted by the B1, B11, and C11 antibodies on different carcinoma cell lines was investigated by flow-cytometry.\n(§2) The antigen distribution of human antibody targeted antigens, mainly for B11, on different carcinoma cell lines was investigated. Cells (MCF-7 and MDA MB 435S breast carcinoma, JAR and JEG-3 chorio-carcinoma, A549 lung carcinoma, TCC-SUP urinary bladder carcinoma, MDA MB 435 melanoma, HPAC, PANC-1 and BxPC-3 pancreatic carcinoma, PC-3 and DU145 prostate carcinoma, LS174 T, CaCo2, and Lovo colorectal carcinoma, and THP-1 monocytic leukaemia cells), were washed in PBS, and resuspended at 4×10^6 cells/ml in Complete Medium (200,000 cells/50 […] sample). […] Cells were incubated with either of the antibodies for 1 hour on ice, washed by resuspension in PBS/BSA 0.5%, centrifuged at 1200 rpm for 5 min, and complete aspiration of the supernatants was undertaken. Cells were incubated with PE-conjugated Goat F(ab′)2 anti-Human IgG (Caltag Laboratories, Cat no: H10104), diluted 1/50 in PBS/BSA 0.5%, for 30 min, on ice. Following resuspension of in 300 μl PBS/BSA 0.5%, cells were analysed for IgG binding using a FACScan instrument."}, "[2]": {"test_system": "LS174 T colorectal carcinoma", "experiment": "IgG binding to tumour cell line, flow cytometry", "set-up": "species or system human", "details": "compared to the prostate cancer cells", "excerpt": "as §1, §2"}, "MCF-7 breast carcinoma": {"test_system": "MCF-7 breast carcinoma", "experiment": "IgG binding to tumour cell line, flow cytometry", "set-up": "species or system human", "details": "MCF-7, compared to the prostate cancer cells", "excerpt": "as §1, §2"}, "[3]": {"test_system": "THP-1 monocytic leukaemia cells", "experiment": "IgG binding to tumour cell line, flow cytometry", "set-up": "species or system human", "excerpt": "as §1, §2"}, "ICAM-1": {"molecular_target": "ICAM-1 (Homo sapiens, UniProt P05362)", "sequence (P05362 28-532)": "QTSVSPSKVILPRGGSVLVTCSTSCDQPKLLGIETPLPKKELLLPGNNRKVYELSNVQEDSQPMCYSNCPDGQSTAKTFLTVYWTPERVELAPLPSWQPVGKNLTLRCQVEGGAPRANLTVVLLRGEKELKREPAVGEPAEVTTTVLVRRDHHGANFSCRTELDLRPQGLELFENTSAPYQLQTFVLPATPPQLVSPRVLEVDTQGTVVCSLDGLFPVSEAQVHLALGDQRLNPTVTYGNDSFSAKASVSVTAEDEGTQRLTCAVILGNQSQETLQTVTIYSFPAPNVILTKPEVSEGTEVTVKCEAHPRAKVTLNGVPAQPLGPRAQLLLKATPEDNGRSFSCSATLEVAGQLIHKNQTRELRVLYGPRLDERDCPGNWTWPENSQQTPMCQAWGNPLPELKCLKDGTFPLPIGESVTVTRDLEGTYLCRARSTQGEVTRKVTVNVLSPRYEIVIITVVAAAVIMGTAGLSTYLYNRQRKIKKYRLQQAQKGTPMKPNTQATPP", "experiment": "Binding to recombinant ICAM-1 (ELISA)", "protocol": "FIG. 12C BI-505 binds specifically to ICAM-1. (a) Pre-incubation with recombinant ICAM-1, but not VCAM, blocks BI-505 binding to targeted tumor B cells.\n(FIG. 21A) BI-505 IgG1, IgG4 and IgG1 N297Q antibodies were analyzed for binding to recombinant ICAM-1 by ELISA."}},
  "data": [
    {"molecule": "B1", "values": [
      {"measurement": "Staining of B lymphoma tissue", "setting": "B lymphoma tissue; Patient A, B-CLL (low malignant non-Hodgkin Lymphoma)", "result": "+"},
      {"measurement": "Staining of B lymphoma tissue", "setting": "B lymphoma tissue; Patient B, Anaplastic Large Cell B Cell Lymphoma", "result": "++"},
      {"measurement": "Staining of B lymphoma tissue", "setting": "B lymphoma tissue; Patient D, B-CLL/B-PLL", "result": "++"},
      {"measurement": "Staining of B lymphoma tissue", "setting": "B lymphoma tissue; Patient F, Centroblastic-Centrocytic B non-Hodgkin Lymphoma", "result": "++"},
      {"measurement": "binding / ICAM-1 expression", "setting": "[1]", "result": "lower intensity"},
      {"measurement": "binding / ICAM-1 expression", "setting": "[2]", "result": "lower intensity"},
      {"measurement": "binding / ICAM-1 expression", "setting": "MCF-7 breast carcinoma", "result": "lower intensity"},
      {"measurement": "binding / ICAM-1 expression", "setting": "[3]", "result": "did not express ICAM-1"},
      {"measurement": "binding to recombinant protein", "setting": "ICAM-1", "result": "binds dose-dependently"}
    ]}
  ]
}
